These are literature values, as cited in patent publication US12258594B2, “Cas proteins with reduced immunogenicity and methods of screening thereof” (THE BROAD INSTITUTE, INC., priority 2018, dated 2025).

First the molecules themselves.
B1: Lys558: LbuCas13a with alanine substituted for Lys558 (protein, UniProt C7NBY4 1-1159, looked up, variant K558A)
CRISPR-associated …: MKVTKVGGISHKKYTSEGRLVKSESEENRTDERLSALLNMRLDMYIKNPSSTETKENQKRIGKLKKFFSNKMVYLKDNTLSLKNGKKENIDREYSETDILESDVRDKKNFAVLKKIYLNENVNSEELEVFRNDIKKKLNKINSLKYSFEKNKANYQKINENNIEKVEGKSKRNIIYDYYRESAKRDAYVSNVKEAFDKLYKEEDIAKLVLEIENLTKLEKYKIREFYHEIIGRKNDKENFAKIIYEEIQNVNNMKELIEKVPDMSELKKSQVFYKYYLDKEELNDKNIKYAFCHFVEIEMSQLLKNYVYKRLSNISNDKIKRIFEYQNLKKLIENKLLNKLDTYVRNCGKYNYYLQDGEIATSDFIARNRQNEAFLRNIIGVSSVAYFSLRNILETENENDITGRMRGKTVKNNKGEEKYVSGEVDKIYNENKKNEVKENLKMFYSYDFNMDNKNEIEDFFANIDEAISSIRHGIVHFNLELEGKDIFAFKNIAPSEISKKMFQNEINEKKLKLKIFRQLNSANVFRYLEKYKILNYLKRTRFEFVNKNIPFVPSFTALYSRIDDLKNSLGIYWKTPKTNDDNKTKEIIDAQIYLLKNIYYGEFLNYFMSNNGNFFEISKEIIELNKNDKRNLKTGFYKLQKFEDIQEKIPKEYLANIQSLYMINAGNQDEEEKDTYIDFIQKIFLKGFMTYLANNGRLSLIYIGSDEETNTSLAEKKQEFDKFLKKYEQNNNIKIPYEINEFLREIKLGNILKYTERLNMFYLILKLLNHKELTNLKGSLEKYQSANKEEAFSDQLELINLLNLDNNRVTEDFELEADEIGKFLDFNGNKVKDNKELKKFDTNKIYFDGENIIKHRAFYNIKKYGMLNLLEKIADKAGYKISIEELKKYSNKKNEIEKNHKMQENLHRKYARPRKDEKFTDEDYESYKQAIENIEEYTHLKNKVEFNELNLLQGLLLRILHRLVGYTSIWERDLRFRLKGEFPENQYIEEIFNFENKKNVKYKGGQIVEKYIKFYKELHQNDEVKINKYSSANIKVLKQEKKDLYIRNYIAHFNYIPHAEISLLEVLENLRKLLSYDRKLKNAVMKSVVDILKEYGFVATFKIGADKKIGIQTLESEKIVHLKNLKKKKLMTDRNSEELCKLVKIMFEYKMEEKKSEN
B2: Tyr601Ala: Tyr601Ala mutant of LbuCas13a (protein, UniProt C7NBY4 1-1159, looked up, variant Y601A)
CRISPR-associated …: MKVTKVGGISHKKYTSEGRLVKSESEENRTDERLSALLNMRLDMYIKNPSSTETKENQKRIGKLKKFFSNKMVYLKDNTLSLKNGKKENIDREYSETDILESDVRDKKNFAVLKKIYLNENVNSEELEVFRNDIKKKLNKINSLKYSFEKNKANYQKINENNIEKVEGKSKRNIIYDYYRESAKRDAYVSNVKEAFDKLYKEEDIAKLVLEIENLTKLEKYKIREFYHEIIGRKNDKENFAKIIYEEIQNVNNMKELIEKVPDMSELKKSQVFYKYYLDKEELNDKNIKYAFCHFVEIEMSQLLKNYVYKRLSNISNDKIKRIFEYQNLKKLIENKLLNKLDTYVRNCGKYNYYLQDGEIATSDFIARNRQNEAFLRNIIGVSSVAYFSLRNILETENENDITGRMRGKTVKNNKGEEKYVSGEVDKIYNENKKNEVKENLKMFYSYDFNMDNKNEIEDFFANIDEAISSIRHGIVHFNLELEGKDIFAFKNIAPSEISKKMFQNEINEKKLKLKIFRQLNSANVFRYLEKYKILNYLKRTRFEFVNKNIPFVPSFTKLYSRIDDLKNSLGIYWKTPKTNDDNKTKEIIDAQIYLLKNIYAGEFLNYFMSNNGNFFEISKEIIELNKNDKRNLKTGFYKLQKFEDIQEKIPKEYLANIQSLYMINAGNQDEEEKDTYIDFIQKIFLKGFMTYLANNGRLSLIYIGSDEETNTSLAEKKQEFDKFLKKYEQNNNIKIPYEINEFLREIKLGNILKYTERLNMFYLILKLLNHKELTNLKGSLEKYQSANKEEAFSDQLELINLLNLDNNRVTEDFELEADEIGKFLDFNGNKVKDNKELKKFDTNKIYFDGENIIKHRAFYNIKKYGMLNLLEKIADKAGYKISIEELKKYSNKKNEIEKNHKMQENLHRKYARPRKDEKFTDEDYESYKQAIENIEEYTHLKNKVEFNELNLLQGLLLRILHRLVGYTSIWERDLRFRLKGEFPENQYIEEIFNFENKKNVKYKGGQIVEKYIKFYKELHQNDEVKINKYSSANIKVLKQEKKDLYIRNYIAHFNYIPHAEISLLEVLENLRKLLSYDRKLKNAVMKSVVDILKEYGFVATFKIGADKKIGIQTLESEKIVHLKNLKKKKLMTDRNSEELCKLVKIMFEYKMEEKKSEN
B3: Lys942Ala: Lys942Ala mutant of LbuCas13a (protein, UniProt C7NBY4 1-1159, looked up, variant K942A)
CRISPR-associated …: MKVTKVGGISHKKYTSEGRLVKSESEENRTDERLSALLNMRLDMYIKNPSSTETKENQKRIGKLKKFFSNKMVYLKDNTLSLKNGKKENIDREYSETDILESDVRDKKNFAVLKKIYLNENVNSEELEVFRNDIKKKLNKINSLKYSFEKNKANYQKINENNIEKVEGKSKRNIIYDYYRESAKRDAYVSNVKEAFDKLYKEEDIAKLVLEIENLTKLEKYKIREFYHEIIGRKNDKENFAKIIYEEIQNVNNMKELIEKVPDMSELKKSQVFYKYYLDKEELNDKNIKYAFCHFVEIEMSQLLKNYVYKRLSNISNDKIKRIFEYQNLKKLIENKLLNKLDTYVRNCGKYNYYLQDGEIATSDFIARNRQNEAFLRNIIGVSSVAYFSLRNILETENENDITGRMRGKTVKNNKGEEKYVSGEVDKIYNENKKNEVKENLKMFYSYDFNMDNKNEIEDFFANIDEAISSIRHGIVHFNLELEGKDIFAFKNIAPSEISKKMFQNEINEKKLKLKIFRQLNSANVFRYLEKYKILNYLKRTRFEFVNKNIPFVPSFTKLYSRIDDLKNSLGIYWKTPKTNDDNKTKEIIDAQIYLLKNIYYGEFLNYFMSNNGNFFEISKEIIELNKNDKRNLKTGFYKLQKFEDIQEKIPKEYLANIQSLYMINAGNQDEEEKDTYIDFIQKIFLKGFMTYLANNGRLSLIYIGSDEETNTSLAEKKQEFDKFLKKYEQNNNIKIPYEINEFLREIKLGNILKYTERLNMFYLILKLLNHKELTNLKGSLEKYQSANKEEAFSDQLELINLLNLDNNRVTEDFELEADEIGKFLDFNGNKVKDNKELKKFDTNKIYFDGENIIKHRAFYNIKKYGMLNLLEKIADKAGYKISIEELKKYSNKKNEIEKNHKMQENLHRKYARPRKDEKFTDEDYESYKQAIENIEEYTHLANKVEFNELNLLQGLLLRILHRLVGYTSIWERDLRFRLKGEFPENQYIEEIFNFENKKNVKYKGGQIVEKYIKFYKELHQNDEVKINKYSSANIKVLKQEKKDLYIRNYIAHFNYIPHAEISLLEVLENLRKLLSYDRKLKNAVMKSVVDILKEYGFVATFKIGADKKIGIQTLESEKIVHLKNLKKKKLMTDRNSEELCKLVKIMFEYKMEEKKSEN
B4: Arg809Ala: Arg809Ala mutant of LbuCas13a (protein, UniProt C7NBY4 1-1159, looked up, variant R809A)
CRISPR-associated …: MKVTKVGGISHKKYTSEGRLVKSESEENRTDERLSALLNMRLDMYIKNPSSTETKENQKRIGKLKKFFSNKMVYLKDNTLSLKNGKKENIDREYSETDILESDVRDKKNFAVLKKIYLNENVNSEELEVFRNDIKKKLNKINSLKYSFEKNKANYQKINENNIEKVEGKSKRNIIYDYYRESAKRDAYVSNVKEAFDKLYKEEDIAKLVLEIENLTKLEKYKIREFYHEIIGRKNDKENFAKIIYEEIQNVNNMKELIEKVPDMSELKKSQVFYKYYLDKEELNDKNIKYAFCHFVEIEMSQLLKNYVYKRLSNISNDKIKRIFEYQNLKKLIENKLLNKLDTYVRNCGKYNYYLQDGEIATSDFIARNRQNEAFLRNIIGVSSVAYFSLRNILETENENDITGRMRGKTVKNNKGEEKYVSGEVDKIYNENKKNEVKENLKMFYSYDFNMDNKNEIEDFFANIDEAISSIRHGIVHFNLELEGKDIFAFKNIAPSEISKKMFQNEINEKKLKLKIFRQLNSANVFRYLEKYKILNYLKRTRFEFVNKNIPFVPSFTKLYSRIDDLKNSLGIYWKTPKTNDDNKTKEIIDAQIYLLKNIYYGEFLNYFMSNNGNFFEISKEIIELNKNDKRNLKTGFYKLQKFEDIQEKIPKEYLANIQSLYMINAGNQDEEEKDTYIDFIQKIFLKGFMTYLANNGRLSLIYIGSDEETNTSLAEKKQEFDKFLKKYEQNNNIKIPYEINEFLREIKLGNILKYTERLNMFYLILKLLNHKELTNLKGSLEKYQSANKEEAFSDQLELINLLNLDNNAVTEDFELEADEIGKFLDFNGNKVKDNKELKKFDTNKIYFDGENIIKHRAFYNIKKYGMLNLLEKIADKAGYKISIEELKKYSNKKNEIEKNHKMQENLHRKYARPRKDEKFTDEDYESYKQAIENIEEYTHLKNKVEFNELNLLQGLLLRILHRLVGYTSIWERDLRFRLKGEFPENQYIEEIFNFENKKNVKYKGGQIVEKYIKFYKELHQNDEVKINKYSSANIKVLKQEKKDLYIRNYIAHFNYIPHAEISLLEVLENLRKLLSYDRKLKNAVMKSVVDILKEYGFVATFKIGADKKIGIQTLESEKIVHLKNLKKKKLMTDRNSEELCKLVKIMFEYKMEEKKSEN
B5: Tyr938Ala: Tyr938Ala mutant of LbuCas13a (protein, UniProt C7NBY4 1-1159, looked up, variant Y938A)
CRISPR-associated …: MKVTKVGGISHKKYTSEGRLVKSESEENRTDERLSALLNMRLDMYIKNPSSTETKENQKRIGKLKKFFSNKMVYLKDNTLSLKNGKKENIDREYSETDILESDVRDKKNFAVLKKIYLNENVNSEELEVFRNDIKKKLNKINSLKYSFEKNKANYQKINENNIEKVEGKSKRNIIYDYYRESAKRDAYVSNVKEAFDKLYKEEDIAKLVLEIENLTKLEKYKIREFYHEIIGRKNDKENFAKIIYEEIQNVNNMKELIEKVPDMSELKKSQVFYKYYLDKEELNDKNIKYAFCHFVEIEMSQLLKNYVYKRLSNISNDKIKRIFEYQNLKKLIENKLLNKLDTYVRNCGKYNYYLQDGEIATSDFIARNRQNEAFLRNIIGVSSVAYFSLRNILETENENDITGRMRGKTVKNNKGEEKYVSGEVDKIYNENKKNEVKENLKMFYSYDFNMDNKNEIEDFFANIDEAISSIRHGIVHFNLELEGKDIFAFKNIAPSEISKKMFQNEINEKKLKLKIFRQLNSANVFRYLEKYKILNYLKRTRFEFVNKNIPFVPSFTKLYSRIDDLKNSLGIYWKTPKTNDDNKTKEIIDAQIYLLKNIYYGEFLNYFMSNNGNFFEISKEIIELNKNDKRNLKTGFYKLQKFEDIQEKIPKEYLANIQSLYMINAGNQDEEEKDTYIDFIQKIFLKGFMTYLANNGRLSLIYIGSDEETNTSLAEKKQEFDKFLKKYEQNNNIKIPYEINEFLREIKLGNILKYTERLNMFYLILKLLNHKELTNLKGSLEKYQSANKEEAFSDQLELINLLNLDNNRVTEDFELEADEIGKFLDFNGNKVKDNKELKKFDTNKIYFDGENIIKHRAFYNIKKYGMLNLLEKIADKAGYKISIEELKKYSNKKNEIEKNHKMQENLHRKYARPRKDEKFTDEDYESYKQAIENIEEATHLKNKVEFNELNLLQGLLLRILHRLVGYTSIWERDLRFRLKGEFPENQYIEEIFNFENKKNVKYKGGQIVEKYIKFYKELHQNDEVKINKYSSANIKVLKQEKKDLYIRNYIAHFNYIPHAEISLLEVLENLRKLLSYDRKLKNAVMKSVVDILKEYGFVATFKIGADKKIGIQTLESEKIVHLKNLKKKKLMTDRNSEELCKLVKIMFEYKMEEKKSEN

For the series, the system named is target RNA. Particulars: LbuCas13a alanine mutants.
With B1, the “crRNA-guided target RNA cleavage activity” value is recorded as “dramatically reduced crRNA-guided RNA cleavage”.

On to B2, for which the “crRNA-guided target RNA cleavage activity” value is reported as “reduced target RNA cleavage activity”.

With B3, the “crRNA-guided target RNA cleavage activity” value is reported as “reduced target RNA cleavage activity”.

As for B4, the “crRNA-guided target RNA cleavage activity” value is recorded as “reduced target RNA cleavage activity”.

For the molecule B5, the “crRNA-guided target RNA cleavage activity” value is given as “reduced target RNA cleavage activity”.
